# Source: the supplement of paper PMC10567573
# B1: MLL5 (parent)
# chain: EQIAERKRKMVSWEASSLGLVTAA
# Variants of: B1
# Assay: protein stability index of a GFP-peptide fusion (GPS, HEK-293T) (PSI 1-6); higher = more stable
# Conditions: c terminus: a fixed tail appended
# 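Note: lentivirally expressed fusions sorted by FACS into six bins by GFP to DsRed ratio, PSI derived from sequencing read proportions per bin multiplied by bin number.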
row,Variant,protein stability index
1,EDIAERKRKMVSWEASSLGLVTAA [Q2D],3.66
2,EFIAERKRKMVSWEASSLGLVTAA [Q2F],2.58
3,EHIAERKRKMVSWEASSLGLVTAA [Q2H],2.68
4,EKIAERKRKMVSWEASSLGLVTAA [Q2K],3.05
5,EMIAERKRKMVSWEASSLGLVTAA [Q2M],2.21
6,ENIAERKRKMVSWEASSLGLVTAA [Q2N],2.37
7,EPIAERKRKMVSWEASSLGLVTAA [Q2P],2.84
8,ESIAERKRKMVSWEASSLGLVTAA [Q2S],2.55
9,ETIAERKRKMVSWEASSLGLVTAA [Q2T],3.25
10,EVIAERKRKMVSWEASSLGLVTAA [Q2V],2.79
11,EQAAERKRKMVSWEASSLGLVTAA [I3A],3.18
12,EQCAERKRKMVSWEASSLGLVTAA [I3C],2.46
13,EQDAERKRKMVSWEASSLGLVTAA [I3D],4.19
14,EQEAERKRKMVSWEASSLGLVTAA [I3E],2.29
15,EQFAERKRKMVSWEASSLGLVTAA [I3F],2.72
16,EQGAERKRKMVSWEASSLGLVTAA [I3G],3.29
17,EQHAERKRKMVSWEASSLGLVTAA [I3H],3.7
18,EQKAERKRKMVSWEASSLGLVTAA [I3K],3.1
19,EQLAERKRKMVSWEASSLGLVTAA [I3L],3.07
20,EQNAERKRKMVSWEASSLGLVTAA [I3N],3.64
21,EQPAERKRKMVSWEASSLGLVTAA [I3P],3.56
22,EQQAERKRKMVSWEASSLGLVTAA [I3Q],3.09
23,EQRAERKRKMVSWEASSLGLVTAA [I3R],2.76
24,EQSAERKRKMVSWEASSLGLVTAA [I3S],3.05

row,Variant,protein stability index
1,EQTAERKRKMVSWEASSLGLVTAA [I3T],3.88
2,EQVAERKRKMVSWEASSLGLVTAA [I3V],3.63
3,EQYAERKRKMVSWEASSLGLVTAA [I3Y],3.14
4,EQIDERKRKMVSWEASSLGLVTAA [A4D],3.67
5,EQIHERKRKMVSWEASSLGLVTAA [A4H],3.39
6,EQIIERKRKMVSWEASSLGLVTAA [A4I],2.38
7,EQIKERKRKMVSWEASSLGLVTAA [A4K],3.36
8,EQILERKRKMVSWEASSLGLVTAA [A4L],2.95
9,EQIPERKRKMVSWEASSLGLVTAA [A4P],3.85
10,EQIQERKRKMVSWEASSLGLVTAA [A4Q],2.34
11,EQIRERKRKMVSWEASSLGLVTAA [A4R],3.59
12,EQISERKRKMVSWEASSLGLVTAA [A4S],3.34
13,EQIVERKRKMVSWEASSLGLVTAA [A4V],2.56
14,EQIYERKRKMVSWEASSLGLVTAA [A4Y],2.8
15,EQIAARKRKMVSWEASSLGLVTAA [E5A],2.25
16,EQIACRKRKMVSWEASSLGLVTAA [E5C],1.87
17,EQIADRKRKMVSWEASSLGLVTAA [E5D],3.49
18,EQIAFRKRKMVSWEASSLGLVTAA [E5F],2.68
19,EQIAGRKRKMVSWEASSLGLVTAA [E5G],2.95
20,EQIAHRKRKMVSWEASSLGLVTAA [E5H],2.12
21,EQIAIRKRKMVSWEASSLGLVTAA [E5I],2.33
22,EQIAKRKRKMVSWEASSLGLVTAA [E5K],3.08
23,EQIANRKRKMVSWEASSLGLVTAA [E5N],2.07
24,EQIAPRKRKMVSWEASSLGLVTAA [E5P],3.01

row,Variant,protein stability index
1,EQIAQRKRKMVSWEASSLGLVTAA [E5Q],2.79
2,EQIASRKRKMVSWEASSLGLVTAA [E5S],2.13
3,EQIAVRKRKMVSWEASSLGLVTAA [E5V],2.44
4,EQIAWRKRKMVSWEASSLGLVTAA [E5W],1.8
5,EQIAEAKRKMVSWEASSLGLVTAA [R6A],4.14
6,EQIAECKRKMVSWEASSLGLVTAA [R6C],3.24
7,EQIAEDKRKMVSWEASSLGLVTAA [R6D],3.98
8,EQIAEEKRKMVSWEASSLGLVTAA [R6E],3.56
9,EQIAEFKRKMVSWEASSLGLVTAA [R6F],2.67
10,EQIAEGKRKMVSWEASSLGLVTAA [R6G],3.38
11,EQIAEHKRKMVSWEASSLGLVTAA [R6H],2.98
12,EQIAEIKRKMVSWEASSLGLVTAA [R6I],1.65
13,EQIAEKKRKMVSWEASSLGLVTAA [R6K],3.18
14,EQIAELKRKMVSWEASSLGLVTAA [R6L],2.65
15,EQIAEMKRKMVSWEASSLGLVTAA [R6M],2.88
16,EQIAENKRKMVSWEASSLGLVTAA [R6N],3
17,EQIAEQKRKMVSWEASSLGLVTAA [R6Q],2.76
18,EQIAETKRKMVSWEASSLGLVTAA [R6T],3.54
19,EQIAEWKRKMVSWEASSLGLVTAA [R6W],2.09
20,EQIAEYKRKMVSWEASSLGLVTAA [R6Y],2.78
21,EQIAERCRKMVSWEASSLGLVTAA [K7C],2.19
22,EQIAERERKMVSWEASSLGLVTAA [K7E],4.03
23,EQIAERFRKMVSWEASSLGLVTAA [K7F],2.74
24,EQIAERGRKMVSWEASSLGLVTAA [K7G],2.93

row,Variant,protein stability index
1,EQIAERHRKMVSWEASSLGLVTAA [K7H],3.36
2,EQIAERIRKMVSWEASSLGLVTAA [K7I],2.98
3,EQIAERLRKMVSWEASSLGLVTAA [K7L],1.97
4,EQIAERMRKMVSWEASSLGLVTAA [K7M],1.7
5,EQIAERQRKMVSWEASSLGLVTAA [K7Q],3.21
6,EQIAERTRKMVSWEASSLGLVTAA [K7T],2.69
7,EQIAERVRKMVSWEASSLGLVTAA [K7V],3.02
8,EQIAERYRKMVSWEASSLGLVTAA [K7Y],2.29
9,EQIAERKAKMVSWEASSLGLVTAA [R8A],3.81
10,EQIAERKCKMVSWEASSLGLVTAA [R8C],2.76
11,EQIAERKDKMVSWEASSLGLVTAA [R8D],2.85
12,EQIAERKEKMVSWEASSLGLVTAA [R8E],3.98
13,EQIAERKFKMVSWEASSLGLVTAA [R8F],2.01
14,EQIAERKHKMVSWEASSLGLVTAA [R8H],3.64
15,EQIAERKIKMVSWEASSLGLVTAA [R8I],2.66
16,EQIAERKKKMVSWEASSLGLVTAA [R8K],3.56
17,EQIAERKLKMVSWEASSLGLVTAA [R8L],2.79
18,EQIAERKMKMVSWEASSLGLVTAA [R8M],3.17
19,EQIAERKNKMVSWEASSLGLVTAA [R8N],2.82
20,EQIAERKPKMVSWEASSLGLVTAA [R8P],3.25
21,EQIAERKSKMVSWEASSLGLVTAA [R8S],2.97
22,EQIAERKTKMVSWEASSLGLVTAA [R8T],3.89
